Test results: patent publication US20140017242A1, “ANTI-BRADYKININ B2 RECEPTOR (BKB2R) MONOCLONAL ANTIBODY” (Diamedica, Inc., priority 2010, published 2014)
Where no end group is shown, it is not given here.

T1: human BKB2R-derived epitope peptide (SEQ ID NO:73), PEG-biotin (human, also: PEG-biotin, site not given here)
T1 construct: also called immunogenic human BKB2R peptide fragment
T1 peptide: KEYSDEGHNVTAC

B1: humanized anti-BKB2R antibody H37/L37 (antibody, human IgG2, kappa, V domains shown)
VH: EVQLVESGGGLVQPGGSLRLSCAASGFTFSDYWMDWVRQAPGKGLEWVGEIRLKSDNYATHYAASVKGRFTISRDDSKNSLYLQMNSLKTEDTAVYYCTRDYYAMEYWGQGTTVTVSS
VL: DIVMTQTPLSLSVTPGQPASISCKSSQTIVHSNGKTYLYWYLQKPGQSPQLLIYKVSSRFSGVPDRFSGSGSGTDFTLKISRVEAEDVGVYYCFQASHVPYTFGQGTKLEIKR
B2: H38/L38: humanized anti-BKB2R mAb, heavy chain H38 (SEQ ID NO:6), light chain L38 (SEQ ID NO:11) (antibody, V domains shown)
VH: EVQLLESGGGLVQPGGSLKLSCAVSGFTFSDYWMSWVRQAPGKGLEWVSEIRLKSDNYATHYADSVKGRFTISRDDSKNTLYLQMNSLRAEDTAVYYCTRDYYAMEYWGQGTLVTVSS
VL: DIVMTQTPLSLPVTSGEPASISCRSSQTIVHSNGKTYLDWYLQKPGQSPQLLIYKVSNRASGVPDRFSGSGSGTDFTLKISRVEAEDVGVYYCFQASHVPYTFGGGTKVEIK
modifications: Humanized H38 Heavy Chain Variable Region VH; Humanized L38 Light Chain Variable Region VL
B3: L1/H1: humanized anti-BKB2R mAb, light chain L1 (SEQ ID NO:8), heavy chain H1 (SEQ ID NO:3), human IgG2/kappa (antibody, V domains shown)
VH: EVQLVESGGGLVQPGGSLRLSCAASGFTFSDYWMSWVRQAPGKGLEWVAEIRLKSDNYATHYAESVKGRFTISRDNAKNSLYLQMNSLRAEDTAVYYCTRDYYAMEYWGQGTLVTVSS
VL: DIVMTQSPLSLPVTPGEPASISCRSSQTIVHSNGKTYLEWYLQKPGQSPQLLIYKVSNRFSGVPDRFSGSGSGTDFTLKISRVEAEDVGVYYCFQASHVPYTFGQGTKLEIK
modifications: Humanized H1 Heavy Chain Variable Region VH; Humanized L1 Light Chain Variable Region VL
B4: humanized anti-BKB2R antibody H38/L39 (antibody, human IgG2, kappa, V domains shown)
VH: EVQLLESGGGLVQPGGSLKLSCAVSGFTFSDYWMSWVRQAPGKGLEWVSEIRLKSDNYATHYADSVKGRFTISRDDSKNTLYLQMNSLRAEDTAVYYCTRDYYAMEYWGQGTLVTVSS
VL: DVVMTQTPLSLSVTPGQPASISCKSSQTIVHSNGKTYLEWYLQKPGQSPQLLIYKVSNRFSGVPDRFSGSGSGTDFTLKISRVEAEDVGVYYCFQASHVPYTFGQGTKLEIKR
B5: humanized anti-BKB2R antibody H38/L38 (antibody, human IgG2, kappa, V domains shown)
VH: EVQLLESGGGLVQPGGSLKLSCAVSGFTFSDYWMSWVRQAPGKGLEWVSEIRLKSDNYATHYADSVKGRFTISRDDSKNTLYLQMNSLRAEDTAVYYCTRDYYAMEYWGQGTLVTVSS
VL: DIVMTQTPLSLPVTSGEPASISCRSSQTIVHSNGKTYLDWYLQKPGQSPQLLIYKVSNRASGVPDRFSGSGSGTDFTLKISRVEAEDVGVYYCFQASHVPYTFGGGTKVEIKR
B6: H39/L37: humanized anti-BKB2R mAb, heavy chain H39 (SEQ ID NO:7), light chain L37 (SEQ ID NO:10) (antibody, V domains shown)
VH: EVKLVESGGGLVQPGGSLRLSCAVSGFTFSDYWMDWVRQAPGKGLEWVAEIRLKSDNYATHYAASVKGRFTISRDDSKSRLYLQMNSLKTEDTAVYYCTRDYYAMEYWGQGTTVTVSS
VL: DIVMTQTPLSLSVTPGQPASISCKSSQTIVHSNGKTYLYWYLQKPGQSPQLLIYKVSSRFSGVPDRFSGSGSGTDFTLKISRVEAEDVGVYYCFQASHVPYTFGQGTKLEIK
modifications: Humanized H39 Heavy Chain Variable Region VH; Humanized L37 Light Chain Variable Region VL
B7: humanized anti-BKB2R antibody H39/L38 (antibody, human IgG2, kappa, V domains shown)
VH: EVKLVESGGGLVQPGGSLRLSCAVSGFTFSDYWMDWVRQAPGKGLEWVAEIRLKSDNYATHYAASVKGRFTISRDDSKSRLYLQMNSLKTEDTAVYYCTRDYYAMEYWGQGTTVTVSS
VL: DIVMTQTPLSLPVTSGEPASISCRSSQTIVHSNGKTYLDWYLQKPGQSPQLLIYKVSNRASGVPDRFSGSGSGTDFTLKISRVEAEDVGVYYCFQASHVPYTFGGGTKVEIKR
B8: humanized anti-BKB2R antibody H37/L39 (antibody, human IgG2, kappa, V domains shown)
VH: EVQLVESGGGLVQPGGSLRLSCAASGFTFSDYWMDWVRQAPGKGLEWVGEIRLKSDNYATHYAASVKGRFTISRDDSKNSLYLQMNSLKTEDTAVYYCTRDYYAMEYWGQGTTVTVSS
VL: DVVMTQTPLSLSVTPGQPASISCKSSQTIVHSNGKTYLEWYLQKPGQSPQLLIYKVSNRFSGVPDRFSGSGSGTDFTLKISRVEAEDVGVYYCFQASHVPYTFGQGTKLEIKR
B9: humanized anti-BKB2R antibody H39/L39 (antibody, human IgG2, kappa, V domains shown)
VH: EVKLVESGGGLVQPGGSLRLSCAVSGFTFSDYWMDWVRQAPGKGLEWVAEIRLKSDNYATHYAASVKGRFTISRDDSKSRLYLQMNSLKTEDTAVYYCTRDYYAMEYWGQGTTVTVSS
VL: DVVMTQTPLSLSVTPGQPASISCKSSQTIVHSNGKTYLEWYLQKPGQSPQLLIYKVSNRFSGVPDRFSGSGSGTDFTLKISRVEAEDVGVYYCFQASHVPYTFGQGTKLEIKR
B10: humanized anti-BKB2R antibody H39/L37 (antibody, human IgG2, kappa, V domains shown)
VH: EVKLVESGGGLVQPGGSLRLSCAVSGFTFSDYWMDWVRQAPGKGLEWVAEIRLKSDNYATHYAASVKGRFTISRDDSKSRLYLQMNSLKTEDTAVYYCTRDYYAMEYWGQGTTVTVSS
VL: DIVMTQTPLSLSVTPGQPASISCKSSQTIVHSNGKTYLYWYLQKPGQSPQLLIYKVSSRFSGVPDRFSGSGSGTDFTLKISRVEAEDVGVYYCFQASHVPYTFGQGTKLEIKR
B11: humanized anti-BKB2R antibody H37/L38 (antibody, human IgG2, kappa, V domains shown)
VH: EVQLVESGGGLVQPGGSLRLSCAASGFTFSDYWMDWVRQAPGKGLEWVGEIRLKSDNYATHYAASVKGRFTISRDDSKNSLYLQMNSLKTEDTAVYYCTRDYYAMEYWGQGTTVTVSS
VL: DIVMTQTPLSLPVTSGEPASISCRSSQTIVHSNGKTYLDWYLQKPGQSPQLLIYKVSNRASGVPDRFSGSGSGTDFTLKISRVEAEDVGVYYCFQASHVPYTFGGGTKVEIKR
B12: humanized anti-BKB2R antibody H38/L37 (antibody, human IgG2, kappa, V domains shown)
VH: EVQLLESGGGLVQPGGSLKLSCAVSGFTFSDYWMSWVRQAPGKGLEWVSEIRLKSDNYATHYADSVKGRFTISRDDSKNTLYLQMNSLRAEDTAVYYCTRDYYAMEYWGQGTLVTVSS
VL: DIVMTQTPLSLSVTPGQPASISCKSSQTIVHSNGKTYLYWYLQKPGQSPQLLIYKVSSRFSGVPDRFSGSGSGTDFTLKISRVEAEDVGVYYCFQASHVPYTFGQGTKLEIKR
B13: L1/HC: humanized light chain L1 (SEQ ID NO:8) with HC, the mouse original 5F12G1 VH (antibody)
heavy: EVKLEESGGGLVQPGGSMKLSCVVSGFTFSDYWMSWVRHSPEMGLEWVAEIRLKSDNYATHYAESVKGRFTISRDDSKSRLYLQINSLRGEDTGIYYCTRDYYAMEYWGQGTSVTVSS
light: DIVMTQSPLSLPVTPGEPASISCRSSQTIVHSNGKTYLEWYLQKPGQSPQLLIYKVSNRFSGVPDRFSGSGSGTDFTLKISRVEAEDVGVYYCFQASHVPYTFGQGTKLEIKRTVAAPSVFIFPPSDEQLKSGTASVVCLLNNFYPREAKVQWKVDNALQSGNSQESVTEQDSKDSTYSLSSTLTLSKADYEKHKVYACEVTHQGLSSPVTKSFNRGEC
modifications: left off: a dimerising Fc or GST

Assays:
[1] = biological target: T1, human BKB2R-derived epitope peptide …; assay: BLI (Octet), peptide-PEG-biotin on streptavidin sensor, antibody 500 nM
Description: (§1) For the Octet study, antibodies were analyzed by kinetic titration of the antibodies. Antibodies were prepared in kinetic buffer (0.001 M phosphate buffered saline (NaCl 0.0138 M; KCl-0.00027 M); pH 7.4, at 25° C., 0.1 mg/ml BSA, 0.002% Tween and 0.005% Sodium Azide) followed by 1:2 serial dilutions.
(§2) Sensor Prep: Streptavidin biosensors (FortéBio Inc, Menlo Park, Calif.) were coated by incubation in a solution containing a peptide ([…]-PEG-biotin) (Biosyn, Lewisville, Tex.) at 50 μg/ml (300 seconds/1000 rpm shaking). 96 well half-volume plates were used for testing. 90 μl of sample was plated per well. Sensors were allowed to equilibrate to baseline in kinetic buffer (60 seconds/1000 rpm). The sensors were then placed into the various antibody dilutions to allow binding (association) to the probe for 500 seconds/1000 rpm, and measurements were taken. The sensors were then moved into kinetic buffer without antibody for dissociation (500 seconds/1000 rpm), and measurements were taken. Octet system software calculated kinetic constants for on rate/off rate/affinity.
For test humanized monoclonal antibodies, the highest concentration used was 500 nM followed by 1:2 dilutions. Each concentration was tested twice. The HC and LC represented the mouse original 5F12G1 VH and VL sequences.

[2] = biological target: T2, human BKB2R-derived epitope peptide, SE ID NO:73 (Homo sapiens, UniProt P30411); assay: ForteBio Octet binding kinetics to the BKB2R epitope peptide; settings: for binding compared with the original mouse monoclonal antibody: Octet, epitope peptide
T2 construct: purchased Biosyn, Lewisville, Tex
Description: Proteins corresponding to all combinations of humanized or chimeric (5F12G1 VH and VL on human IgG2 backbone) antibodies were tested for binding to the human BKB2R-derived epitope peptide, SE ID NO:73.
A ForteBio (Menlo Park, Calif., USA) Octet® platform was used to analyze the binding affinities and binding characteristics of the humanized monoclonal antibodies to the peptide epitope (SEQ ID NO:73) and compared to the original mouse monoclonal 5F12G1. This platform employed label-free technology for measuring biomolecular interactions by optical analysis of the interference pattern of white light reflected from two surfaces: a layer of immobilized protein on the biosensor tip, and an internal reference layer. Any change in the number of molecules bound to the biosensor tip caused a shift in the interference pattern that was measured in real-time. Binding specificity, and rates of association and dissociation were monitored.
as §1, §2
[…] […] Each concentration was tested twice. The HC and LC represented the mouse original 5F12G1 VH and VL sequences.

Row | Molecule | Kd [1] | Max Response [1] | koff [1] | kon [1] | kdis ([2]; Conc. 500 nM) | kon ([2]; Conc. 500 nM) | binding compared with the original mouse monoclonal antibody [2] | kdis ([2]; Conc. 250 nM) | kon ([2]; Conc. 250 nM)
1 | B1 | 758 nM | 0.12 | 1.18 s⁻¹ | 1.55e+06 M⁻¹ s⁻¹ | – | – | – | – | –
2 | B2 | – | – | – | – | 0.00763 s⁻¹ | 3.06e+06 M⁻¹ s⁻¹ | stronger binding (lower KD) | – | –
3 | B3 | – | – | – | – | 0.942 s⁻¹ | 404000 M⁻¹ s⁻¹ | – | 0.701 s⁻¹ | 1.59e+06 M⁻¹ s⁻¹
4 | B4 | 93.2 nM | 0.0681 | 106 s⁻¹ | 1.14e+09 M⁻¹ s⁻¹ | – | – | – | – | –
5 | B5 | 2.49 nM | 0.132 | 0.00763 s⁻¹ | 3.06e+06 M⁻¹ s⁻¹ | – | – | – | – | –
6 | B6 | – | – | – | – | 0.0288 s⁻¹ | 1.23e+06 M⁻¹ s⁻¹ | stronger binding (lower KD) | – | –
7 | B7 | 761 nM | 0.143 | 4.9 s⁻¹ | 6.44e+06 M⁻¹ s⁻¹ | – | – | – | – | –
8 | B8 | 1230 nM | 0.121 | 1.98 s⁻¹ | 1.11e+06 M⁻¹ s⁻¹ | – | – | – | – | –
9 | B9 | 1730 nM | 0.0915 | 1.26 s⁻¹ | 729000 M⁻¹ s⁻¹ | – | – | – | – | –
10 | B10 | 23.4 nM | 0.119 | 0.0288 s⁻¹ | 1.23e+06 M⁻¹ s⁻¹ | – | – | – | – | –
11 | B11 | 220 nM | 0.173 | 2.08 s⁻¹ | 9.47e+06 M⁻¹ s⁻¹ | – | – | – | – | –
12 | B12 | 3110 nM | 0.577 | 29.4 s⁻¹ | 9.44e+06 M⁻¹ s⁻¹ | – | – | – | – | –
13 | B13 | – | – | – | – | 2.16 s⁻¹ | 543000 M⁻¹ s⁻¹ | – | 0.728 s⁻¹ | 239000 M⁻¹ s⁻¹
